Experimental findings from patent US20100272689A1, “Protease Having Algicidal Activity, Gene Encoding the Same and Algicidal Formulation Comprising the Same” (KOREA OCEAN RESEARCH & DEVELOPMENT INSTITUTE, priority 2007, published 2010) are described below.

Assay in all cases: Algicidal activity by cell count after 24 hr (Lugol staining)
What all share (format): cell-based

Assay [1] deals with Alexandrium sp. As to conditions: for Algicidal activity (degree of inhibition): 50 μl of protein (100 μg/ml), after 24 hr. On the procedure:
(§1) Organisms used as host for algicidal bacteria screen are Cochlodinium polykrikoides, Thalassiosira sp., Heterosigma akashiwo, Skeletonema costatum, Alexandrium sp., Gymnodium sp., Chaetoceros cuvisetus. Each algae cell was grown to log phase in F/2 broth (0.075 g NaNO3, 0.005 g NaH2PO4?H2O, 0.030 g Na2SiO3?9H2O, 1 ml F/2 trace metal solution, 1 ml F/2 vitamin solution and 1,000 ml aged seawater) [Stein, Handbook of phycological methods, Cambridge Univ. Press, 1973].
(§2) The cultured red tide organisms were diluted in F/2 broth to a final density of 0.05 (excitation wavelength=434 nm, emission wavelength=670 nm)on the fluorescent intensity using fluoro-spectrophotometer (Hitachi, Japan), and then 2.7 ml aliquots were dispensed into several test tubes (110 mm×10 mm) to prepare for the MPN (most probable number) method.
(§3) To measure algicidal activity of 10476—7 protein (SEQ ID NO:27), 50 μl of said protein (100 μg/ml) was added to the culture solutions of Cochlodinium polykrikoides, Thalassiosira sp., Heterosigma akashiwo, Skeletonema costatum, Alexandrium sp., Chaetoceros cuvisetus and Gymnodniium sp. which were prepared in Example 2. After 24 hr, said culture solutions were stained with 1% Lugol's iodine solution, and then the cell number was counted. Experimental groups with protease (experimental group 1 and 2) were compared with control group without protease in cell number and the degree of inhibition.
(§4) To check algicidal activity of proteins isolated Flavobacterium johnsoniae UW101 (ZP—01247095, SEQ ID NO: 4), Croceibacter atlanticus HTCC2559 (ZP—00951344, SEQ ID NO: 5), Leeuwenhoekiella blandensis MED217 (ZP—01059780, SEQ ID NO: 6) and Kordia algicida KAOT1—11562 (SEQ ID NO: 7), 50 μl of said protein (100 μg/ml) was added to the culture solutions of Cochlodinium polykrikoides, Thalassiosira sp., Heterosigma akashiwo, Skeletonema costatum, Alexandrium sp., Chaetoceros cuvisetus, and Gymnodium sp., which were prepared in Example 2. After 24 hr, said culture solutions were stained with 1% Lugol's iodine solution, and then the cell number was counted.
(§5) Experimental groups with protease (experimental group 1 and 2) were compared with control group without protease in cell number and the degree of inhibition.

For assay [2], the system named is Skeletonema costatum. To be noted: for Algicidal activity (degree of inhibition): 50 μl of protein (100 μg/ml), after 24 hr. The protocol:
as §1, §2, §3, §4, §5

Assay [3] deals with Gymnodinium sp. To be noted: for Algicidal activity (degree of inhibition): 50 μl of protein (100 μg/ml), after 24 hr. The protocol: as §1, §2, §3, §4, §5
Assay [4] concerns Chaetoceros cuvisetus. To be noted: for Algicidal activity (degree of inhibition): 50 μl of protein (100 μg/ml), after 24 hr. On the procedure: as §1, §2, §3, §4, §5
In assay [5] the test system is Thalassiosira sp. As to conditions: for Algicidal activity (degree of inhibition): 50 μl of protein (100 μg/ml), after 24 hr. On the procedure: as §1, §2, §3, §4, §5
Assay [6] has as its system Cochlodinium polykrikoides. As to conditions: Cochlodinium polykrikoides; for Algicidal activity (degree of inhibition): 50 μl of protein (100 μg/ml), after 24 hr. The protocol:
as §1, §2, §3, §4, §5

For assay [7], the system named is Heterosigma akashiwo. As to conditions: for Algicidal activity (degree of inhibition): 50 μl of protein (100 μg/ml), after 24 hr. On the procedure: as §1, §2, §3, §4, §5

B1: KAOT1_11562: protein of Kordia algicida with high homology to KAOT1—10476 (protein, listed as Kordia algicida)
chain: MKRNFKIQMLYVLLTMLLLAGCQNDTEEELVEEATTAVERVDVKWLAPDDHPVVQLLYSRGYERGTIYETDEHFLAPPDLLYSKDINDYDLSDNGSNAEQAYNTGKLVSLNRMRINVFLDNSIGTDLQTQSVNAMNELNGINNCALFFVRVFNANQAQITIRSDFGAESNNVLGRAGFPSNGRPFDTVTLNVDRLDDFGADIRRNTIIHELGHCVGLRHTDWQANRERSAVNIPGTSANDTGSIMWHTINGGTPFTNGDLTAFRALFPRALRIDVVNEIDDYDYSGEIYVLDNVFVDVFTDGSYSTQTTLNRNVNVSYRINVQEYNHTSGTYYYSRNRTLTAGNNRYYIDDEEEECSPYQGETCTRQDLEIRLATSIL
modifications: Kordia algicida KAOT1_11562
Consider B1, for which the “Algicidal activity (degree of inhibition)” value in assay [1] was “++++ (++++ means >75% the degree of inhibition)”; in assay [2], “+ (+ means <25%)”; in assay [3] it was “++++ (++++ means >75% the degree of inhibition)”; in assay [4], “++++ (++++ means >75% the degree of inhibition)”; in assay [5], “++++ (++++ means >75% the degree of inhibition)”; in assay [6], “++++ (++++ means >75% the degree of inhibition)”. Moreover, the “Algicidal activity (degree of inhibition)” value in assay [7] was “++++ (++++ means >75% the degree of inhibition)”.

B2: FJ: protein of Flavobacterium johnsoniae UW101 with homology to KAOT1—10476 (protein, listed as Flavobacterium johnsoniae)
chain: MKKIKSILILSFTALVLLSCNKEDETVSSGQESLKVTPEVLEKLKSLSLNTSDVQVIQNTSLEGAVEDAFLVEGDIIITQAQLNKMDLHGGITTEQYRTTNLVSAPRTIKVVGLSGTGTTALTTNMRNGLQAAINRYNNLGLSINFTLTFSSSTSGANIVVRRQTGSAGGVAGFPSGGNPYNSVTLYSGLDSYSTNVNAHVAAHEIGHCIGLRHTDWFSRQSCGQNSNEGTAGVGAILIPGTPSGYDATSYMRACFGSNETGAFNANDITALNYLY
modifications: Flavobacterium johnsoniae UW101 (ZP_01247095)
B2: the “Algicidal activity (degree of inhibition)” value in assay [1] is “++++ (++++ means >75% the degree of inhibition)”; in assay [2], “++ (++ means 25-50%)”; in assay [3], “++++ (++++ means >75% the degree of inhibition)”; in assay [4] it was “++++ (++++ means >75% the degree of inhibition)”; in assay [5] it was “++++ (++++ means >75% the degree of inhibition)”; in assay [6], “++++ (++++ means >75% the degree of inhibition)”. In addition, the “Algicidal activity (degree of inhibition)” value in assay [7] was “++++ (++++ means >75% the degree of inhibition)”.

B3: KAOT1_10476: metallo protease of Kordia algicida OT1: signal peptide (1-27), processing peptide (28-98), mature region (99-278) (protein, listed as Kordia algicida)
chain: MKKIKNLTFALALGLGITMVSCSKDTAVVDEEQDTAIGIPQDVLQKAQSLHFNTFDMQEASFEKPNGKIEEGYMMEGDIFFTRDQLMNMELGGDITSKQYRTNNLVSPGVITIIGYTGNNSNGLTTKMQTGLRWAVDNYNALNLSISFQLTFGTDYQNKDMVVYQVQGGAGGSAGFPSGGNPYKWVKINSGMAPYSNNVHEHVIGHEIGHSIGFRHSDYFSRQSCGQNSNEGSAGVGAIHIPGTPTGWDPTSLMNACFSSSEDGEFNGNDITALNFLY
modifications: KAOT1_10476 of Kordia algicida OT-1
Consider B3, for which the “Algicidal activity (in words)” value in assay [1] is listed as “showed algicidal activity”; in assay [2] it was “showed algicidal activity”; in assay [3] it was “showed algicidal activity”; in assay [4], “showed algicidal activity”; in assay [5] it was “showed algicidal activity”; in assay [6], “cell growth was inhibited effectively”. The “Algicidal activity (in words)” value in assay [7] is “showed algicidal activity”. In addition, the “Algicidal activity (degree of inhibition)” value was “++++ (++++ means >75% the degree of inhibition)” in assay [1]; “+ (+ means <25%)” in assay [2]; “++++ (++++ means >75% the degree of inhibition)” in assay [3]; “++++ (++++ means >75% the degree of inhibition)” in assay [4]; “++++ (++++ means >75% the degree of inhibition)” in assay [5]; “++++ (++++ means >75% the degree of inhibition)” in assay [6]. Besides, in assay [7], the “Algicidal activity (degree of inhibition)” value is “++++ (++++ means >75% the degree of inhibition)”.

B4: CRO: protein of Croceibacter atlanticus HTCC2559 with homology to KAOT1—10476 (protein, listed as Croceibacter atlanticus)
chain: MVFVSCEKDNDTNNAEVADTNEVTTGSLETLGVNTDLTPTNLDQATLDLIASKHLSPIGAQEELRYLPDGTSEKAIRIEGDIVMTKAELEELEFNGYSNENAQYSTNALVSPQTITIIGYTGGSQALTSSEQTALQWAVANYNRLNLNINFSLTFGTNYQNKDMVVYNNTVNNPSGAGGSAGFPSGGNPHKFVQIYGLSNYNTNVIEHVITHEIGHSVGFRHTDYFSRQSCGQNTNEGTAGVGANHIPGTPTGYDSTSIMLACFSSGEDGEFNSNDITALNYLY
modifications: Croceibacter atlanticus HTCC2559 (ZP_00951344)
On to B4, for which the “Algicidal activity (degree of inhibition)” value in assay [1], in assay [3], in assay [4], in assay [5], in assay [6] and in assay [7] was “++++ (++++ means >75% the degree of inhibition)” in each case.

B5: MED: protein of Leeuwenhoekiella blandensis MED217 with homology to KAOT1—10476 (protein, listed as Leeuwenhoekiella blandensis)
chain: MTSCSEDAEQTTLPEAQPTSNLEVSSEIIQQVEDLGMNANYVRWDDFYFPDGSSEPRLFLEEDVVVTPEQLSSMSANVEESKSGKGDSKQYRTSALVSQGRTISIIGYTGGSQALSQKERTALQWAVANYNRLSGVSISFNLTFGTDYQNKDMVVYNNTVNNPSGAGGSAGFPSNGLPYKFVQIYGLANYDTNVVEHVMTHEIGHSVGFRHTDWFSRQSCGQNVYEGGDANHVSGTPTGYDSTSIMLACFSANEDGEFNANDITALNNMY
modifications: Leeuwenhoekiella blandensis MED217 (ZP_01059780)
B5: the “Algicidal activity (degree of inhibition)” value in assay [1], in assay [2], in assay [3], in assay [4], in assay [5] and in assay [6] was “++++ (++++ means >75% the degree of inhibition)” throughout. Also, the “Algicidal activity (degree of inhibition)” value in assay [7] is “++++ (++++ means >75% the degree of inhibition)”.
